Experimental data reported in the supplement of paper PMC5998384.

Assays:
[1] = system: HeLa Kyoto; experiment: solubility in G1/S (NP-40 vs SDS abundance) (log2 ratio); higher = more soluble; conditions: cell cycle stage: G1/S
[2] = system: HeLa Kyoto; experiment: melting temperature (median over replicates), in situ; higher = more thermally stable
[3] = system: HeLa Kyoto; experiment: solubility change mitosis vs G1/S (difference of NP-40 vs SDS log2 ratios) (log2 ratio difference); higher = more soluble in mitosis
[4] = system: HeLa Kyoto; experiment: thermal stability score vs G1/S (z-score of summed log2 fold changes over temperatures); higher = more thermally stable than in G1/S
[5] = cell cycle stage: early G1 (4.5 h after nocodazole release)
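Wherever melting temperature (median over replicates), in situ is given: HeLa Kyoto cells synchronized by double thymidine or nocodazole block, proteins quantified by TMT10plex mass spectrometry, three independent biological replicates.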
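Wherever solubility change mitosis vs G1/S (difference of NP-40 vs SDS log2 ratios) is given: synchronized HeLa Kyoto cells (double thymidine block for G1/S, nocodazole release for mitosis), protein amounts in NP-40 versus SDS lysates quantified by mass spectrometry, three biological replicates.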
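Wherever solubility in G1/S (NP-40 vs SDS abundance) is given: HeLa Kyoto cells arrested at G1/S by double thymidine block, proteins quantified by TMT10plex mass spectrometry in mild NP-40 versus SDS extracts, three biological replicates.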
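Wherever thermal stability score vs G1/S (z-score of summed log2 fold changes over temperatures) is given: synchronized HeLa Kyoto cells, proteins quantified by TMT10plex mass spectrometry, three biological replicates, mitosis taken 0.5 h after nocodazole release, G1/S directly after double thymidine block.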

Row | Sequence | solubility in G1/S (log2) [1] | melting temperature ([2]; cell cycle stage: G1/S) [°C] | melting temperature ([2]; cell cycle stage: mitosis) [°C] | solubility change mitosis (log2) [3] | thermal stability score [4, 5] | thermal stability score ([4]; cell cycle stage: mitosis)
1 | MDSKESLTPGREENPSSVLAQERGDVMDFYKTLRGGATVKVSASSPSLAVASQSDSKQRRLLVDFPKGSVSNAQQPDLSKAVSLSMGLYMGETETKVMGNDLGFPQQGQISLSSGETDLKLLEESIANLNRSTSVPENPKSSASTAVSAAPTEKEFPKTHSDVSSEQQHLKGQTGTNGGNVKLYTTDQSTFDILQDLEFSSGSPGKETNESPWRSDLLIDENCLLSPLAGEDDSFLLEGNSNEDCKPLILPDTKPKIKDNGDLVLSSPSNVTLPQVKTEKEDFIELCTPGVIKQEKLGTVYCQASFPGANIIGNKMSAISVHGVSTSGGQMYHYDMNTASLSQQQDQKPIFNVIPPIPVGSENWNRCQGSGDDNLTSLGTLNFPGRTVFSNGYSSPSMRPDVSSPPSSSSTATTGPPPKLCLVCSDEASGCHYGVLTCGSCKVFFKRAVEGQHNYLCAGRNDCIIDKIRRKNCPACRYRKCLQAGMNLEARKTKKKIKGIQQATTGVSQETSENPGNKTIVPATLPQLTPTLVSLLEVIEPEVLYAGYDSSVPDSTWRIMTTLNMLGGRQVIAAVKWAKAIPGFRNLHLDDQMTLLQYSWMFLMAFALGWRSYRQSSANLLCFAPDLIINEQRMTLPCMYDQCKHMLYVSSELHRLQVSYEEYLCMKTLLLLSSVPKDGLKSQELFDEIRMTYIKELGKAIVKREGNSSQNWQRFYQLTKLLDSMHEVVENLLNYCFQTFLDKTMSIEFPEMLAEIITNQIPKYSNGNIKKLLFHQK [NR3C1] | 0.0188 | 48.2 | 49.3 | -0.168 | 0.508 | 1.98
2 | MDSRLQEIRERQKLRRQLLAQQLGAESADSIGAVLNSKDEQREIAETRETCRASYDTSAPNAKRKYLDEGETDEDKMEEYKDELEMQQDEENLPYEEEIYKDSSTFLKGTQSLNPHNDYCQHFVDTGHRPQNFIRDVGLADRFEEYPKLRELIRLKDELIAKSNTPPMYLQADIEAFDIRELTPKFDVILLEPPLEEYYRETGITANEKCWTWDDIMKLEIDEIAAPRSFIFLWCGSGEGLDLGRVCLRKWGYRRCEDICWIKTNKNNPGKTKTLDPKAVFQRTKEHCLMGIKGTVKRSTDGDFIHANVDIDLIITEEPEIGNIEKPVEIFHIIEHFCLGRRRLHLFGRDSTIRPGWLTVGPTLTNSNYNAETYASYFSAPNSYLTGCTEEIERLRPKSPPPKSKSDRGGGAPRGGGRGGTSAGRGRERNRSNFRGERGGFRGGRGGAHRGGFPPR [METTL14] | 0.0131 | 52.3 | 53.4 | -0.118 | -0.705 | 0.141
3 | MDTGVIEGGLNVTLTIRLLMHGKEVGSIIGKKGESVKKMREESGARINISEGNCPERIITLAGPTNAIFKAFAMIIDKLEEDISSSMTNSTAASRPPVTLRLVVPASQCGSLIGKGGCKIKEIRESTGAQVQVAGDMLPNSTERAITIAGIPQSIIECVKQICVVMLETLSQSPPKGVTIPYRPKPSSSPVIFAGGQDRYSTGSDSASFPHTTPSMCLNPDLEGPPLEAYTIQGQYAIPQPDLTKLHQLAMQQSHFPMTHGNTGFSGIESSSPEVKGYWGLDASAQTTSHELTIPNDLIGCIIGRQGAKINEIRQMSGAQIKIANPVEGSTDRQVTITGSAASISLAQYLINVRLSSETGGMGSS [PCBP2] | 0.222 | 47.9 | 49.5 | -0.136 | 1.75 | 7.6
4 | MDTMMLNVRNLFEQLVRRVEILSEGNEVQFIQLAKDFEDFRKKWQRTDHELGKYKDLLMKAETERSALDVKLKHARNQVDVEIKRRQRAEADCEKLERQIQLIREMLMCDTSGSIQLSEEQKSALAFLNRGQPSSSNAGNKRLSTIDESGSILSDISFDKTDESLDWDSSLVKTFKLKKREKRRSTSRQFVDGPPGPVKKTRSIGSAVDQGNESIVAKTTVTVPNDGGPIEAVSTIETVPYWTRSRRKTGTLQPWNSDSTLNSRQLEPRTETDSVGTPQSNGGMRLHDFVSKTVIKPESCVPCGKRIKFGKLSLKCRDCRVVSHPECRDRCPLPCIPTLIGTPVKIGEGMLADFVSQTSPMIPSIVVHCVNEIEQRGLTETGLYRISGCDRTVKELKEKFLRVKTVPLLSKVDDIHAICSLLKDFLRNLKEPLLTFRLNRAFMEAAEITDEDNSIAAMYQAVGELPQANRDTLAFLMIHLQRVAQSPHTKMDVANLAKVFGPTIVAHAVPNPDPVTMLQDIKRQPKVVERLLSLPLEYWSQFMMVEQENIDPLHVIENSNAFSTPQTPDIKVSLLGPVTTPEHQLLKTPSSSSLSQRVRSTLTKNTPRFGSKSKSATNLGRQGNFFASPMLK [RACGAP1] | -0.106 | 48.1 | 49.1 | 0.141 | 1.13 | 1.61
5 | MDVAESPERDPHSPEDEEQPQGLSDDDILRDSGSDQDLDGAGVRASDLEDEESAARGPSQEEEDNHSDEEDRASEPKSQDQDSEVNELSRGPTSSPCEEEGDEGEEDRTSDLRDEASSVTRELDEHELDYDEEVPEEPAPAVQEDEAEKAGAEDDEEKGEGTPREEGKAGVQSVGEKESLEAAKEKKKEDDDGEIDDGEIDDDDLEEGEVKDPSDRKVRPRPTCRFFMKGNCTWGMNCRFIHPGVNDKGNYSLITKADPFPPNGAPPLGPHPLMPANPWGGPVVDEILPPPPPEPPTESAWERGLRHAKEVLKKATIRKEQEPDFEEKRFTVTIGEDEREFDKENEVFRDWNSRIPRDVRDTVLEPYADPYYDYEIERFWRGGQYENFRVQYTETEPYHNYRERERERERENRQRERERERERDRERERRQRERERERERERDKERQRRKEEWERERAKRDEKDRQHRDRDREKEREKEKGKPKPRSPQPPSRQAEPPKKEAATTGPQVKRADEWKDPWRRSKSPKKKLGVSVSPSRARRRRKTSASSASASNSSRSSSRSSSYSGSGSSRSRSRSSSYSSYSSRSSRHSSFSGSRSRSRSFSSSPSPSPTPSPHRPSIRTKGEPAPPPGKAGEKSVKKPAPPPAPPQATKTTAPVPEPTKPGDPREARRKERPARTPPRRRTLSGSGSGSGSSYSGSSSRSRSLSVSSVSSVSSATSSSSSAHSVDSEDMYADLASPVSSASSRSPAPAQTRKEKGKSKKEDGVKEEKRKRDSSTQPPKSAKPPAGGKSSQQPSTPQQAPPGQPQQGTFVAHKEIKLTLLNKAADKGSRKRYEPSDKDRQSPPPAKRPNTSPDRGSRDRKSGGRLGSPKPERQRGQNSKAPAAPADRKRQLSPQSKSSSKVTSVPGKASDPGAASTKSGKASTLSRREELLKQLKAVEDAIARKRAKIPGKA [ZC3H18] | -0.653 | 48.7 | 51.3 | 0.144 | 7.23 | 11.9
6 | MDVENEQILNVNPADPDNLSDSLFSGDEENAGTEEIKNEINGNWISASSINEARINAKAKRRLRKNSSRDSGRGDSVSDSGSDALRSGLTVPTSPKGRLLDRRSRSGKGRGLPKKGGAGGKGVWGTPGQVYDVEEVDVKDPNYDDDQENCVYETVVLPLDERAFEKTLTPIIQEYFEHGDTNEVAEMLRDLNLGEMKSGVPVLAVSLALEGKASHREMTSKLLSDLCGTVMSTTDVEKSFDKLLKDLPELALDTPRAPQLVGQFIARAVGDGILCNTYIDSYKGTVDCVQARAALDKATVLLSMSKGGKRKDSVWGSGGGQQSVNHLVKEIDMLLKEYLLSGDISEAEHCLKELEVPHFHHELVYEAIIMVLESTGESTFKMILDLLKSLWKSSTITVDQMKRGYERIYNEIPDINLDVPHSYSVLERFVEECFQAGIISKQLRDLCPSRGRKRFVSEGDGGRLKPESY [PDCD4] | 0.349 | 48.8 | – | -0.495 | 1.91 | 4.21
7 | MDVGELLSYQPNRGTKRPRDDEEEEQKMRRKQTGTRERGRYREEEMTVVEEADDDKKRLLQIIDRDGEEEEEEEEPLDESSVKKMILTFEKRSYKNQELRIKFPDNPEKFMESELDLNDIIQEMHVVATMPDLYHLLVELNAVQSLLGLLGHDNTDVSIAVVDLLQELTDIDTLHESEEGAEVLIDALVDGQVVALLVQNLERLDESVKEEADGVHNTLAIVENMAEFRPEMCTEGAQQGLLQWLLKRLKAKMPFDANKLYCSEVLAILLQDNDENRELLGELDGIDVLLQQLSVFKRHNPSTAEEQEMMENLFDSLCSCLMLSSNRERFLKGEGLQLMNLMLREKKISRSSALKVLDHAMIGPEGTDNCHKFVDILGLRTIFPLFMKSPRKIKKVGTTEKEHEEHVCSILASLLRNLRGQQRTRLLNKFTENDSEKVDRLMELHFKYLGAMQVADKKIEGEKHDMVRRGEIIDNDTEEEFYLRRLDAGLFVLQHICYIMAEICNANVPQIRQRVHQILNMRGSSIKIVRHIIKEYAENIGDGRSPEFRENEQKRILGLLENF [CTNNBL1] | -0.0781 | 47.6 | 47.7 | 0.207 | 3.96 | 7.66
8 | MDWLMGKSKAKPNGKKPAAEERKAYLEPEHTKARITDFQFKELVVLPREIDLNEWLASNTTTFFHHINLQYSTISEFCTGETCQTMAVCNTQYYWYDERGKKVKCTAPQYVDFVMSSVQKLVTDEDVFPTKYGREFPSSFESLVRKICRHLFHVLAHIYWAHFKETLALELHGHLNTLYVHFILFAREFNLLDPKETAIMDDLTEVLCSGAGGVHSGGSGDGAGSGGPGAQNHVKER [MOB2] | -0.0333 | 50.1 | – | 0.0638 | 0.797 | 0.832
9 | MDYRRLLMSRVVPGQFDDADSSDSENRDLKTVKEKDDILFEDLQDNVNENGEGEIEDEEEEGYDDDDDDWDWDEGVGKLAKGYVWNGGSNPQANRQTSDSSSAKMSTPADKVLRKFENKINLDKLNVTDSVINKVTEKSRQKEADMYRIKDKADRATVEQVLDPRTRMILFKMLTRGIITEINGCISTGKEANVYHASTANGESRAIKIYKTSILVFKDRDKYVSGEFRFRHGYCKGNPRKMVKTWAEKEMRNLIRLNTAEIPCPEPIMLRSHVLVMSFIGKDDMPAPLLKNVQLSESKARELYLQVIQYMRRMYQDARLVHADLSEFNMLYHGGGVYIIDVSQSVEHDHPHALEFLRKDCANVNDFFMRHSVAVMTVRELFEFVTDPSITHENMDAYLSKAMEIASQRTKEERSSQDHVDEEVFKRAYIPRTLNEVKNYERDMDIIMKLKEEDMAMNAQQDNILYQTVTGLKKDLSGVQKVPALLENQVEERTCSDSEDIGSSECSDTDSEEQGDHARPKKHTTDPDIDKKERKKMVKEAQREKRKNKIPKHVKKRKEKTAKTKKGK [RIOK1] | -0.18 | 52.3 | 54.8 | 0.0777 | 1.87 | 1.28
10 | MEADIITNLRCRLKEAEEERLKAAQYGLQLVESQNELQNQLDKCRNEMMTMTESYEQEKYTLQREVELKSRMLESLSCECEAIKQQQKMHLEKLEEQLSRSHGQEVNELKTKIEKLKVELDEARLSEKQLKHQVDHQKELLSCKSEELRVMSERVQESMSSEMLALQIELTEMESMKTTLKEEVNELQYRQEQLELLITNLMRQVDRLKEEKEEREKEAVSYYNALEKARVANQDLQVQLDQALQQALDPNSKGNSLFAEVEDRRAAMERQLISMKVKYQSLKKQNVFNREQMQRMKLQIATLLQMKGSQTEFEQQERLLAMLEQKNGEIKHLLGEIRNLEKFKNLYDSMESKPSVDSGTLEDNTYYTDLLQMKLDNLNKEIESTKGELSIQRMKALFESQRALDIERKLFANERCLQLSESENMKLRAKLDELKLKYEPEETVEVPVLKKRREVLPVDITTAKDACVNNSALGGEVYRLPPQKEETQSCPNSLEDNNLQLEKSVSIYTPVVSLSPHKNLPVDMQLKKEKKCVKLIGVPADAEALSERSGNTPNSPRLAAESKLQTEVKEGKETSSKLEKETCKKLHPILYVSSKSTPETQCPQQ [SPDL1] | 0.268 | 47.2 | 50.1 | 0.278 | 0.59 | 0.359
